Experimental data reported in the supplement of paper PMC12042874.
± gives the uncertainty stated by the source.

Assay: amyloid nucleation score (Sup35N fusion, yeast selection) (log enrichment); library NNK3; higher = more nucleation; inactive = no reads after selection
Procedure, shortened: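 The nucleation score is the DiMSum log enrichment of output over input reads, centred on the mode score of non-aggregating sequences. Only sequences with 100 or more input reads were scored, using Illumina sequencing of input and output plasmid inserts. Psi-negative yeast expressing Sup35N fused to peptides of 20 random codons were induced 24 hours with 100 μM copper sulfate and grown 7 days at 30°C on medium lacking adenine and uracil.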

Row | Substance | amyloid nucleation score
1 | MGRGWRHGCWLGRILRFWYD | inactive
2 | IIFLQIPNLFMGNKTRQKGA | inactive
3 | VMGDSVRIAELQIWAEINGL | 1.07 ± 0.14
4 | AMEEDIYLTNDYTIIM | 0.45 ± 0.39
5 | NSLSIVM | -0.523 ± 1.1
6 | LGFFCVIFVS | inactive
7 | ILCANGYRSVFSYFLFGCAY | inactive
8 | FHVEVVAGCIVGNFGGVCVI | 0.5 ± 0.28
9 | MDAISFQRDMMFNGGFFCAM | inactive
10 | SLDCARNFRFGQTVFCCVGY | 1.21 ± 0.18
11 | INVSLGHAGEGWVWLALHLR | inactive
12 | ELSACCYAMSWMVDCVRASL | 1.34 ± 0.1
13 | LYLYSWFC | inactive
14 | GSMVVEFMYYHPTPTRGAWA | 0.8 ± 0.17
15 | NLHAEWMDGSTGRKIAWNNG | inactive
16 | FVAVVSRDISNYSRGRSEKR | inactive
17 | SFHTHRGYNG | inactive
18 | FLSEIGADTTKSYWDTIPRF | -1.2 ± 2.5
19 | IWSIQLSFKIASSCNFATG | inactive
20 | NSLFCTWSSPWVYNPTYGWE | 1.26 ± 0.17
21 | EMEASRG | inactive
22 | YNFVPVFHVNMSVFLCILVL | 2.43 ± 0.072
23 | LETNG | inactive

Row | Substance | amyloid nucleation score
24 | LVLAVVMTFRLRIRLSNLSR | inactive
25 | VIRVLQPFDCGCILYSCLIS | inactive
26 | PYTTLYSFRNC | inactive
27 | YYLGSADGDPDIKWSLGYRK | inactive
28 | YSLRNNFLLVFSLVSDRPIG | 1.06 ± 0.12
29 | INGSNNATCWVSLSIMKARI | inactive
30 | SNWECLGGHENGINCRDI | inactive
31 | EWFEKIFIRLTGHRTKFYNS | inactive
32 | RYYCMYSSGEIRCSVSWGVW | inactive
33 | EVRLLGYLVTRNDM | inactive
34 | TIVYSLT | inactive
35 | SKVWRYI | inactive
36 | RNWCSLNNLFYPWV | 1.78 ± 0.12
37 | PHMNWSYVPQF | inactive
38 | WKNNRLNIIYQPLLGTQICK | inactive
39 | HSNECFLGDSSNWWVYWAVR | inactive
40 | IRYYFRHLG | -0.203 ± 0.36
41 | WDFFIGLLLYSIL | inactive
42 | YPLYVHRCLIMTFMLSLWPR | inactive
43 | RYTTY | inactive
44 | VAAMYGILMMLMELVWSDAR | inactive
45 | AILCTIVCNASWAEEQSA | 1.09 ± 0.17
46 | FSNVRDFGFGKDY | inactive

Row | Substance | amyloid nucleation score
47 | GRGSKLVCVR | 2.63 ± 0.071
48 | HMSQYGRLCKMATLTFT | inactive
49 | RLLLMIL | inactive
50 | ISGEQRYSKCRT | inactive
51 | VRVLMSL | -0.087 ± 0.45
52 | TVWELM | -0.068 ± 0.33
53 | RLIYHRQFFRE | inactive
54 | MQFLRYSLPSDNRLPGCFL | inactive
55 | VFSGGVRETLNSS | inactive
56 | FQSDRVCFIGGWTSNRVGWM | 0.699 ± 0.28
57 | QYISIENHPEACMQGSTCYS | inactive
58 | RGGTASQVFMCFKLVFRSRY | -0.14 ± 0.6
59 | DINAVT | inactive
60 | QVGSRRNSS | inactive
61 | CSCFYNNRIISSPMLLWLVQ | inactive
62 | YPLNLYYQAFYSLIGLVIPP | inactive
63 | LNLGIFV | inactive
64 | WKGMITFGI | inactive
65 | KFIWYIDDCWWCTTICSSGG | inactive
66 | SIRNFVTSENTVLSDIKPWR | inactive
67 | HDNRDDRIVFFARLDHSRRS | 0.626 ± 0.34
68 | TKCLRVVKRTTYGSQEFLRK | inactive
69 | LSEMANDHEHVYSYRKAHYM | -0.626 ± 0.8

Row | Substance | amyloid nucleation score
70 | ICAMAYADRTFSTSKGSK | inactive
71 | RLFTTLVRDLTENCIRFLWT | inactive
72 | VRGYLYRCKAGSLACHPDPG | inactive
73 | LRHGSSEFNYGNFFLCLFEQ | 2.56 ± 0.075
74 | GRNKSLYGIGLVRYVMLVSE | inactive
75 | NYLFRT | inactive
76 | WTSHALKISPLNICNQLEHV | -0.09 ± 0.77
77 | HGVPSLLICWRVLNRSIFMV | inactive
78 | QRIESGPLDY | inactive
79 | LMVSREFWCSLSKV | inactive
80 | YFINSFCVAVWIICHQGVCA | inactive
81 | PFCRMKLGMTLRALLLVMGS | inactive
82 | YTALL | inactive
83 | RSTSVWRFLWMLHVFSKLLH | inactive
84 | REVRNWRERVCQMRVLVVMC | inactive
85 | VCNQS | inactive
86 | NMRTCSIGSKPIVKFTYMCG | 1.31 ± 0.15
87 | RWSNYMFDRQLY | -1.2 ± 1.8
88 | SFDVLSRV | inactive
89 | LIACSHSRNT | inactive
90 | MIYLYNKKYMSCRFDTCIIP | inactive
91 | FMCNNRSILGICIFYDLRRN | 2.64 ± 0.081
92 | GQWDYLLTQYKNIK | -1.01 ± 1.1

Row | Substance | amyloid nucleation score
93 | SVARNSHYATLHKELQHVMY | inactive
94 | SWYDHWSLIQDGLKRVNGG | inactive
95 | YMLLVSGFA | inactive
96 | VSTWVQTPGTHMLGVIVYFE | inactive
97 | YLSGSDIGFGYERCKIDSGV | inactive
98 | VSSRECMLRPLPDTKTRLAA | inactive
99 | LSLKNFMSSFSSLWCGWSDD | 0.689 ± 0.29
100 | IVRDFLAGPIKHSTFEVIDF | inactive
101 | IIFNFFSRVLELLMLGYPYT | inactive
102 | QYAAMATGNLYLS | inactive
103 | RHELTNRREK | inactive
104 | TFSVYADETSKRTVFTVMIW | inactive
105 | SVSSRHSAW | inactive
106 | SDKFMLRHHLCWDARSCFQV | 0.348 ± 0.75
107 | PYYRRMPVDSARRTSKSK | inactive
108 | RFRHGDTGSTFRCWCFVS | inactive
109 | GYNVVKLCFIIILFVVEESS | inactive
110 | FVYWNLSAYVRILVVDGNGR | inactive
111 | LVEVDDASNIDCEAAYCKWY | inactive
112 | NSQGQNYILTFYR | 1.82 ± 0.088
113 | VNYDSVLYLVFLCIYLHKNR | inactive
114 | RTLTLLYTFF | 2.56 ± 0.052
115 | FVVVHLSVKSIVPAFVSWDR | -0.36 ± 0.84

Row | Substance | amyloid nucleation score
116 | SRSLIRINWFRGKKLCYGFE | inactive
117 | KCIGDLTSRMDLR | inactive
118 | INLVNTLFTIILMRSYRRTR | 0.022 ± 0.31
119 | VQCRSHWHWRRPGPEARSVW | inactive
120 | VDSDHIIHSTVLISVLGELD | inactive
121 | LAITLRLLFVNIIFTDPDLY | inactive
122 | FYDAWRIFLSYFRLSLLTNV | inactive
123 | VFCSSDTAFPEGTTVSSRSR | inactive
124 | VWLSRRIVCFRLLVQLNSA | inactive
125 | TDYQNWFNVEINKF | 1.48 ± 0.14
126 | NMPYSCKRLWRDKCQMWEYR | inactive
127 | IGFAGSVM | inactive
128 | FRYNDFMRD | inactive
129 | ILVAGTAV | inactive
130 | YLNISGWSYFNCTRSWLLNR | inactive
131 | LSKHEAGTCRLVNDRTHYKA | inactive
132 | SYYVNVRYWSITCPIWGLSD | 2.29 ± 0.08
133 | KRFGKMLLW | inactive
134 | VIALDVNL | inactive
135 | RYSVYGLNICFL | 2.45 ± 0.083
136 | GPYHELCNHRL | inactive
137 | TELVLRAVSSLGVLVIFTTS | inactive
138 | YYQGAQPLNPGAR | inactive

Row | Substance | amyloid nucleation score
139 | SLKLRCLLGTSKVVMVDLFV | inactive
140 | RLRRSGVKWVVLKGGTRTWQ | inactive
141 | IKNEQSARRGASSCGGTADK | inactive
142 | SMFNGNLSRSMWFWRVRVTP | inactive
143 | HCAMCWGILEFEISMFAMEW | inactive
144 | DEMRKGRWHGDRLGRSDRQE | inactive
145 | CIVAANHRRCNFLRLGRRLG | -0.654 ± 1.5
146 | KLFVVHSREGEFIFSI | inactive
147 | LWASTVGVFVGRRSPYLMCW | inactive
148 | IEFLFMYTWWAVLNSGSK | 0.999 ± 0.2
149 | YWNIFGVVSN | inactive
150 | LVDLSRSISKSPMQKYRF | inactive
151 | VRLRVEYAKSEWKMIFGEFY | inactive
152 | GMDCNKIRLASSWVYYLTSE | inactive
153 | RRRGNKAFHPLQ | inactive
154 | RLSEFGVNVAQMWATVVTSL | inactive
155 | RMRYFDVYIWSDMRNEPGGL | inactive
156 | DRAMFYDALDNARVISKLRG | inactive
157 | LAVFSEARNEGTTQFYYLLK | inactive
158 | NFNYNQQLSVLLLVFGWTWR | 1.83 ± 0.075
159 | KDSQALHRFSNTILRYL | -0.406 ± 0.82
160 | TRGRNTKDGVDGDLPADVLV | inactive
